{
  "source": "patent USRE46585",
  "about": "(LABORATOIRE FRANCAIS DU FRACTIONNEMENT ET DES …, dated 2017)",
  "binders": {"B1": {"name": "C3A_01 (other)", "chain": "CPPCPAPELLGGPSVFLFPPKPKDTLMISRTPEVTCVVVDVSHEDPEVKFNWYVDGVEVHNAKTKPREEQYNSTYRVVSVLTVLHQDWLDGKEYKCKVSNKALPVPIEKTISKAKGQPREPQVYTLPPSRDELTKNQVSLTCLVKGFYPSDIAVEWESNGQPENNYKTTPPVLDSDGSFFLYSKLTVDKSRWQQGNVFSCSVMHEALHYHYTQKSLSLSPGK", "notes": "EU numbering"}, "B2": {"name": "C3A_24 (other)", "chain": "B1 chain with T82P, D90N, V105A, N164T, D176G, N196T", "notes": "EU numbering"}, "B3": {"name": "C5A_20 (other)", "chain": "B1 chain with V105A, S190D", "notes": "EU numbering"}, "B4": {"name": "C4A_36 (other)", "chain": "B1 chain with K95T, V105A", "notes": "EU numbering"}, "B5": {"name": "C4A_06 (other)", "chain": "B1 chain with P5T", "notes": "EU numbering"}, "B6": {"name": "C5A_03 (other)", "chain": "B1 chain with V39A, V105A", "notes": "EU numbering"}, "B7": {"name": "C4A_41 (other)", "chain": "B1 chain with Q137E", "notes": "EU numbering"}, "B8": {"name": "C4A_28 (other)", "chain": "B1 chain with V39E, D90N, V105A, A153V", "notes": "EU numbering"}, "B9": {"name": "C5A_63 (other)", "chain": "B1 chain with S73N", "notes": "EU numbering"}, "B10": {"name": "C4A_24 (other)", "chain": "B1 chain with L84P", "notes": "EU numbering"}, "B11": {"name": "C5A_58 (other)", "chain": "B1 chain with V39E, D90N, V105A, A153V, P171L, Y209S", "notes": "EU numbering"}, "B12": {"name": "C3A_31 (other)", "chain": "B1 chain with N164K, D176G", "notes": "EU numbering"}, "B13": {"name": "C4A_27 (other)", "chain": "B1 chain with V39A, T74A, D90N, V105A, A153V, E157G", "notes": "EU numbering"}, "B14": {"name": "C5A_19 (other)", "chain": "B1 chain with V39A, V80A", "notes": "EU numbering"}, "B15": {"name": "C4A_29 (other)", "chain": "B1 chain with T82P, V105A, N136S, Q137R", "notes": "EU numbering"}, "B16": {"name": "C3A_43 (other)", "chain": "B1 chain with V105A, R191G", "notes": "EU numbering"}, "B17": {"name": "C5A_75 (other)", "chain": "B1 chain with T82N, V105A", "notes": "EU numbering"}, "B18": {"name": "C3A_21 (other)", "chain": "B1 chain with S175P", "notes": "EU numbering"}, "B19": {"name": "C4A_25 (other)", "chain": "B1 chain with V172M", "notes": "EU numbering"}, "B20": {"name": "C4A_32 (other)", "chain": "B1 chain with V39E, V105A, A153V, Y209N", "notes": "EU numbering"}, "B21": {"name": "C5A_12 (other)", "chain": "B1 chain with V105A, Q137E, N164K", "notes": "EU numbering"}, "B22": {"name": "C5A_50 (other)", "chain": "B1 chain with D45N, V105A", "notes": "EU numbering"}, "B23": {"name": "C6A_05 (other)", "chain": "B1 chain with T82A", "notes": "EU numbering"}, "B24": {"name": "C4A_18 (other)", "chain": "B1 chain with A153V", "notes": "EU numbering"}, "B25": {"name": "C5A_44 (other)", "chain": "B1 chain with V105A, N164K", "notes": "EU numbering"}, "B26": {"name": "C4A_45 (other)", "chain": "B1 chain with K21R, H60Y", "notes": "EU numbering"}, "B27": {"name": "C5A_41 (other)", "chain": "B1 chain with A102T, Q137R", "notes": "EU numbering"}, "B28": {"name": "C3A_39 (other)", "chain": "B1 chain with A6V, D90N, V105A, Q117E", "notes": "EU numbering"}, "B29": {"name": "C3A_42 (other)", "chain": "B1 chain with N164K, V172M", "notes": "EU numbering"}, "B30": {"name": "C5A_15 (other)", "chain": "B1 chain with V78A, E157V", "notes": "EU numbering"}, "B31": {"name": "C4A_15 (other)", "chain": "B1 chain with E8D, V105A", "notes": "EU numbering"}, "B32": {"name": "C3A_08 (other)", "chain": "B1 chain with V39E, D90N, V105A, P127S, A153V, Y209S", "notes": "EU numbering"}, "B33": {"name": "C4A_01 (other)", "chain": "B1 chain with V105A, Q137R, N164K", "notes": "EU numbering"}, "B34": {"name": "C6A_35 (other)", "chain": "B1 chain with T25A", "notes": "EU numbering"}, "B35": {"name": "C3A_07 (other)", "chain": "B1 chain with T82P, D90N, V105T, A153V, Y209N", "notes": "EU numbering"}, "B36": {"name": "C3A_15 (other)", "chain": "B1 chain with V39E, T82A, D90N, V105A, A153V, Y209N", "notes": "EU numbering"}, "B37": {"name": "C6A_04 (other)", "chain": "B1 chain with D90N, V105A, Q117R, E157V", "notes": "EU numbering"}},
  "note": "Changes are numbered by the printed parent chain.",
  "data": [
    {"molecular_target": "T1, FcRn-p3 fusion protein (human, UniProt P55899 24-297; P61769 21-119)", "T1 construct": "baculovirus expressed; coated on ELISA wells; not shown: amino terminal part of bacteriophage p3 protein and CVDE protein", "T1 sequence (P55899 24-297, chain 1 of 2)": "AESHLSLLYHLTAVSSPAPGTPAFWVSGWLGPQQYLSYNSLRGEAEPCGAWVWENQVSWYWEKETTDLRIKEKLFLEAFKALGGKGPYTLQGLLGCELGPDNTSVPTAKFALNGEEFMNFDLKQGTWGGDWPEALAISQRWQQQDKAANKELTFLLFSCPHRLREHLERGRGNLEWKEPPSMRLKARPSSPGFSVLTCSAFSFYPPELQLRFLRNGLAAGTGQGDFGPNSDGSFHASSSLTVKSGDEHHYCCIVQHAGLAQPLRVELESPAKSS", "T1 sequence (P61769 21-119, chain 2 of 2)": "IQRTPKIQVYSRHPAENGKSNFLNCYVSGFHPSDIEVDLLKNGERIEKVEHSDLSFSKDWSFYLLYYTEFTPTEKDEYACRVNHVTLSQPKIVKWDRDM", "assay": "phage ELISA pH6", "units": {"Ratio/Fc-H": "fold"}, "values": [
      {"binder": "B1", "Ratio/Fc-H": 2.5},
      {"binder": "B2", "Ratio/Fc-H": 2.9},
      {"binder": "B3", "Ratio/Fc-H": 2.6},
      {"binder": "B4", "Ratio/Fc-H": 2.8},
      {"binder": "B5", "Ratio/Fc-H": 3.6},
      {"binder": "B6", "Ratio/Fc-H": 2.7},
      {"binder": "B7", "Ratio/Fc-H": 3.4},
      {"binder": "B8", "Ratio/Fc-H": 3.4},
      {"binder": "B9", "Ratio/Fc-H": 2},
      {"binder": "B10", "Ratio/Fc-H": 2.3},
      {"binder": "B11", "Ratio/Fc-H": 2.8},
      {"binder": "B12", "Ratio/Fc-H": 2.2},
      {"binder": "B13", "Ratio/Fc-H": 2.7},
      {"binder": "B14", "Ratio/Fc-H": 2.9},
      {"binder": "B15", "Ratio/Fc-H": 3.8},
      {"binder": "B16", "Ratio/Fc-H": 2.5},
      {"binder": "B17", "Ratio/Fc-H": 2.8},
      {"binder": "B18", "Ratio/Fc-H": 3},
      {"binder": "B19", "Ratio/Fc-H": 2.8},
      {"binder": "B20", "Ratio/Fc-H": 1.7},
      {"binder": "B21", "Ratio/Fc-H": 3.8},
      {"binder": "B22", "Ratio/Fc-H": 2.3},
      {"binder": "B23", "Ratio/Fc-H": 1.9},
      {"binder": "B24", "Ratio/Fc-H": 2.5},
      {"binder": "B25", "Ratio/Fc-H": 2.7},
      {"binder": "B26", "Ratio/Fc-H": 2.3},
      {"binder": "B27", "Ratio/Fc-H": 1.3},
      {"binder": "B28", "Ratio/Fc-H": 1.8},
      {"binder": "B29", "Ratio/Fc-H": 3.7},
      {"binder": "B30", "Ratio/Fc-H": 3.4},
      {"binder": "B31", "Ratio/Fc-H": 2.2},
      {"binder": "B32", "Ratio/Fc-H": 3},
      {"binder": "B33", "Ratio/Fc-H": 2.4},
      {"binder": "B34", "Ratio/Fc-H": 1.8},
      {"binder": "B35", "Ratio/Fc-H": 1.3},
      {"binder": "B36", "Ratio/Fc-H": 1.9},
      {"binder": "B37", "Ratio/Fc-H": 2.9}
    ]},
    {"molecular_target": "T1, FcRn-p3 fusion protein", "assay": "phage ELISA pH6 (est.)", "units": {"Ratio/FWT": "fold"}, "values": [
      {"binder": "B1", "Ratio/FWT": 8},
      {"binder": "B2", "Ratio/FWT": 9.2},
      {"binder": "B3", "Ratio/FWT": 8.4},
      {"binder": "B4", "Ratio/FWT": 8.9},
      {"binder": "B5", "Ratio/FWT": 11.4},
      {"binder": "B6", "Ratio/FWT": 8.7},
      {"binder": "B7", "Ratio/FWT": 10.8},
      {"binder": "B8", "Ratio/FWT": 10.8},
      {"binder": "B9", "Ratio/FWT": 6.3},
      {"binder": "B10", "Ratio/FWT": 7.5},
      {"binder": "B11", "Ratio/FWT": 9.1},
      {"binder": "B12", "Ratio/FWT": 6.9},
      {"binder": "B13", "Ratio/FWT": 8.7},
      {"binder": "B14", "Ratio/FWT": 9.3},
      {"binder": "B15", "Ratio/FWT": 12},
      {"binder": "B16", "Ratio/FWT": 8.1},
      {"binder": "B17", "Ratio/FWT": 8.9},
      {"binder": "B18", "Ratio/FWT": 9.8},
      {"binder": "B19", "Ratio/FWT": 8.9},
      {"binder": "B20", "Ratio/FWT": 5.4},
      {"binder": "B21", "Ratio/FWT": 12.1},
      {"binder": "B22", "Ratio/FWT": 7.3},
      {"binder": "B23", "Ratio/FWT": 6.2},
      {"binder": "B24", "Ratio/FWT": 8.1},
      {"binder": "B25", "Ratio/FWT": 8.7},
      {"binder": "B26", "Ratio/FWT": 7.2},
      {"binder": "B27", "Ratio/FWT": 4.3},
      {"binder": "B28", "Ratio/FWT": 5.6},
      {"binder": "B29", "Ratio/FWT": 12},
      {"binder": "B30", "Ratio/FWT": 10.9},
      {"binder": "B31", "Ratio/FWT": 6.9},
      {"binder": "B32", "Ratio/FWT": 9.7},
      {"binder": "B33", "Ratio/FWT": 7.5},
      {"binder": "B34", "Ratio/FWT": 5.7},
      {"binder": "B35", "Ratio/FWT": 4.2},
      {"binder": "B36", "Ratio/FWT": 6},
      {"binder": "B37", "Ratio/FWT": 9.4}
    ]}
  ]
}
